Reference: patent US20260022175A1 (Chugai, published 2026)

Columns and labels:
[1] = molecular target: hFcγRIIIaV on hFcγRIIIaV-expressing Jurkat cells (human, UniProt P08637 17-254); test: cell-based or functional assay
[2] = molecular target: T1, human FcγRIIa R extracellular domain (human, UniProt P12318 34-217); test: SPR Biacore 8K+; KD of G1d divided by KD of this antibody;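 note: antibodies captured on an anti-Fab-kappa streptavidin chip, soluble FcγR ectodomains flowed over, KD by steady-state fit for FcγRIIb and Langmuir kinetic model for the other receptors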
T1 construct: extracellular domain; also called hFcγR IIa R
T1 sequence (looked up): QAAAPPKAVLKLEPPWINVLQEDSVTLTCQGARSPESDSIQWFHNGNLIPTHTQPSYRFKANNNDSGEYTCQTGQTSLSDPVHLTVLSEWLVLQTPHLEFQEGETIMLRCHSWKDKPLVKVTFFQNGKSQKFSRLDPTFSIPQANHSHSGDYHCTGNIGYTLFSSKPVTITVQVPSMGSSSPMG

[3] = molecular target: T2, human FcγRIIIa F extracellular domain (human, UniProt P08637 17-208); test: as above
T2 construct: extracellular domain; also called hFcγR IIIa F

[4] = molecular target: T3, human FcγRIIa H extracellular domain (human, UniProt P12318 34-217); test: as above
T3 construct: extracellular domain; also called hFcγR IIa H
T3 sequence (looked up): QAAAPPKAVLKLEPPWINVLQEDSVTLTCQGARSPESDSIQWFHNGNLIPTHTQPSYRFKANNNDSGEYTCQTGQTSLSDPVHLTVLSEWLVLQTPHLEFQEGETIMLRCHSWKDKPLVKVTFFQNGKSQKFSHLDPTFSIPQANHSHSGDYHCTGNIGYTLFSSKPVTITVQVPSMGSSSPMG

[5] = molecular target: T4, human FcγRIa extracellular domain (human, UniProt P12314 16-292); test: as above
T4 construct: extracellular domain; also called hFcγR Ia; hFcγRIa

[6] = molecular target: T5, human FcγRIIb extracellular domain (human, UniProt P31994 43-217); test: as above
T5 construct: extracellular domain; also called hFcγR IIb
T5 sequence (looked up): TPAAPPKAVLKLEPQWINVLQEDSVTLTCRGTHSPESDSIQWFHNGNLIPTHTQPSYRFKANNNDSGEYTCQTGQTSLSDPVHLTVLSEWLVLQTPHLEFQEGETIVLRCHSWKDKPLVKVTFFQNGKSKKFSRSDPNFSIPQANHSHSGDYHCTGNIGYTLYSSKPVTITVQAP

[7] = molecular target: T6, human FcγRIIIa V extracellular domain (human, UniProt P08637 17-208); test: as above
T6 construct: extracellular domain; also called hFcγR IIIa V

[8] = molecular target: T7, human C1q protein (Calbiochem) (human, UniProt P02745 23-245; P02746 28-253; P02747 29-245); test: ELISA: antibody coated on the plate at the varied concentration, hC1q 3 µg/mL added, detected with HRP-conjugated anti-hC1q antibody, O.D (450-690nm)
T7 construct: bought; also called hC1q

[9] = molecular target: T5, human FcγRIIb extracellular domain; test: SPR Biacore 8K+, antibody captured, FcγR as analyte, steady state affinity model
[10] = molecular target: T1, human FcγRIIa R extracellular domain; test: SPR Biacore 8K+, antibody captured, FcγR as analyte, 1:1 Langmuir model;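 note: antibodies captured on a streptavidin chip through a biotinylated anti-human Fab kappa reagent, with FcγR extracellular domains injected in pH 7.4 phosphate buffer at 25 °C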
[11] = molecular target: T2, human FcγRIIIa F extracellular domain; test: as above
[12] = molecular target: T3, human FcγRIIa H extracellular domain; test: as above
[13] = molecular target: T4, human FcγRIa extracellular domain; test: as above
[14] = molecular target: T6, human FcγRIIIa V extracellular domain; test: as above
[15] = molecular target: T8, hFcγRIIaH on hFcγRIIaH-expressing Jurkat cells (human, UniProt P12318 34-317); test: cell-based or functional assay
T8 sequence (looked up): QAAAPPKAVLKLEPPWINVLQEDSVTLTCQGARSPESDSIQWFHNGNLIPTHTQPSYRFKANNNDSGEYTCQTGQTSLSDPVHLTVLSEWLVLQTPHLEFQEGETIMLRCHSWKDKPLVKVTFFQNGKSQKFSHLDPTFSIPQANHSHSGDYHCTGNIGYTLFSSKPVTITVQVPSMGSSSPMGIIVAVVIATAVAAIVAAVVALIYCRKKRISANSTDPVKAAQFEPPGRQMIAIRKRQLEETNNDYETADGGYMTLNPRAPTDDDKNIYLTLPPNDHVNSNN

[16] = molecular target: T1, human FcγRIIa R extracellular domain; test: SPR Biacore 8K+; KD for FcγRIIb divided by KD for this FcγR;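 note: antibodies captured on an anti-human Fab kappa SA chip with soluble human FcγR ectodomains flowed over, FcγRIIb KD from steady-state fit, other FcγR KD from Langmuir model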
[17] = molecular target: T2, human FcγRIIIa F extracellular domain; test: as above
[18] = molecular target: T3, human FcγRIIa H extracellular domain; test: as above
[19] = molecular target: T6, human FcγRIIIa V extracellular domain; test: as above
[20] = molecular target: T9, hCTLA4-His-BAP (human CTLA4 extracellular region with C-terminal His-tag and BAP-tag) (human, biotin on the BAP-tag); test: SPR 37C, ATP 100 µM
T9 construct: also called hCTLA4-His-Biotin

[21] = molecular target: T9, hCTLA4-His-BAP (human CTLA4 …); test: SPR 37C, no ATP, steady state model
[22] = molecular target: T9, hCTLA4-His-BAP (human CTLA4 …); test: SPR 37C, ATP 10 µM
human CTLA4 [23] = molecular target: T10, human CTLA4 (human); test: SPR Biacore T200, 37C, antibody captured, ATP 100 uM; ATP 100 µM; binding amount
T10 construct: also called hCTLA4; hCTLA4-His-BAP

human CTLA4 [24] = molecular target: T10, human CTLA4; test: SPR Biacore T200, 37C, antibody captured, ATP 100 uM; ATP 100 µM
human CTLA4 [25] = molecular target: T10, human CTLA4; test: SPR Biacore T200, 37C, antibody captured, ATP 10 uM; ATP 10 µM; binding amount
human CTLA4 [26] = molecular target: T10, human CTLA4; test: SPR Biacore T200, 37C, antibody captured, ATP 10 uM; ATP 10 µM
human CTLA4 [27] = molecular target: T10, human CTLA4; test: SPR Biacore T200, 37C, antibody captured, no ATP; no ATP; binding amount
human CTLA4 [28] = molecular target: T10, human CTLA4; test: SPR Biacore T200, 37C, antibody captured, ATP 1 uM; ATP 1 µM; binding amount

T9 sequence (chain, as listed by the source limits assumed): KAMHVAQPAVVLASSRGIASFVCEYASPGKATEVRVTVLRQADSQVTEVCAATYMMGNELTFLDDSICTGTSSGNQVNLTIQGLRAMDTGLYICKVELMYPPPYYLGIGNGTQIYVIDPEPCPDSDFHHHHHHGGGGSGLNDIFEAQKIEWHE
T10 sequence (chain, as listed by the source limits assumed): as above
T6 sequence (P08637 17-208 F176V limits assumed): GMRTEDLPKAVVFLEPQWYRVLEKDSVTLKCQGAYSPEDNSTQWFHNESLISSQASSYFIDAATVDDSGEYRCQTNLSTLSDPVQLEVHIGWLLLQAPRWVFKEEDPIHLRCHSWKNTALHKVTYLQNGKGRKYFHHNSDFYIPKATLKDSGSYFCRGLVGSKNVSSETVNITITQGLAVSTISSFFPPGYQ
T2 sequence (P08637 17-208): as the sequence (P08637 17-208 F176V limits assumed) above, with V160F counted along it
T4 sequence (P12314 16-292): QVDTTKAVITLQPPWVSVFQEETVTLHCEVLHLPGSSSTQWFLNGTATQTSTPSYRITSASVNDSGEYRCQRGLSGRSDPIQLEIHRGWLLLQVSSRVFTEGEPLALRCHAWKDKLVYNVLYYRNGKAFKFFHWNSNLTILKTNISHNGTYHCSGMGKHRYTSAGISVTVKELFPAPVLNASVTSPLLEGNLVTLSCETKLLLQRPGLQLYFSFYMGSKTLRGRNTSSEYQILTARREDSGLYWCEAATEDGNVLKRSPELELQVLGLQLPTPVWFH
Sequence of hFcγRIIIaV on hFcγRIIIaV-expressing Jurkat cells (P08637 17-254, form in doubt): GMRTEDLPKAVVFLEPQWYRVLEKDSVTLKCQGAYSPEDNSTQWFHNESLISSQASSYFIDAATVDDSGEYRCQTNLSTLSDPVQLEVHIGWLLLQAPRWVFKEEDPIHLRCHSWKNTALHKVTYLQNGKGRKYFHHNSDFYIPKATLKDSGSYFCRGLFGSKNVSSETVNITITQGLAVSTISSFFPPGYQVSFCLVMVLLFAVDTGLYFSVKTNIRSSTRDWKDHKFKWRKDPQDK
T7 sequence (P02745 23-245 limits assumed, chain 1 of 3): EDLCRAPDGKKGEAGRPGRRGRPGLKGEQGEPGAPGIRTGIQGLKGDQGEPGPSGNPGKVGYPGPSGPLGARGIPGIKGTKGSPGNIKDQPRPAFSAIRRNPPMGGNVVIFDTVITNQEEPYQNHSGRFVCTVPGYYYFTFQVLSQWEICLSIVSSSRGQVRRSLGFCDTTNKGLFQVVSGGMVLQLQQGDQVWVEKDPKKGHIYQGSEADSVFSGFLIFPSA
T7 sequence (P02746 28-253 limits assumed, chain 2 of 3): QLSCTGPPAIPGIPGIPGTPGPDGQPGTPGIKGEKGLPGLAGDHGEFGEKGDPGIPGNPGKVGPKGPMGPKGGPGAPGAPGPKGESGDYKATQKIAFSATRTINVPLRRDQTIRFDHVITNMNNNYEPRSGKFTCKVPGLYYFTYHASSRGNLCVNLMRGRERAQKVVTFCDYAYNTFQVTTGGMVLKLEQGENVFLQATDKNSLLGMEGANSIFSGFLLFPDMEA
T7 sequence (P02747 29-245 limits assumed, chain 3 of 3): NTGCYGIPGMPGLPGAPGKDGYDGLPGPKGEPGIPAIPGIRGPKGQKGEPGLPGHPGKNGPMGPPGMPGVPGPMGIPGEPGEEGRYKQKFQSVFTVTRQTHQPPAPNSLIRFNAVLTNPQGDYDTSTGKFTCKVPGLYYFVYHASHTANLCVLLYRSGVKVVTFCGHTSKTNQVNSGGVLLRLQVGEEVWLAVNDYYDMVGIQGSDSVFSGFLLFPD

B1: H240-GASDALIE/L73-k0 (antibody, human IgG1, kappa)
heavy: QDQLVQSGAEVKKPGASVKVSCKASGFNIKDTYIQWVRQAPGQGLEWMGRIDPLRKQTKYREKFEGRVTITADTSTNTAYMELSSLRSEDTAVYYCVRSGREFDYWGQGTLVTVSSASTKGPSVFPLAPSSKSTSGGTAALGCLVKDYFPEPVTVSWNSGALTSGVHTFPAVLQSSGLYSLSSVVTVPSSSLGTQTYICNVNHKPSNTKVDKKVEPKSCDKTHTCPPCPAPELLAGPDVFLFPPKPKDTLMISRTPEVTCVVVDVSHEDPEVKFNWYVDGVEVHNAKTKPREEQYNSTYRVVSVLTVLHQDWLNGKEYKCKVSNKALPLPEEKTISKAKGQPREPQVYTLPPSRDELTKNQVSLTCLVKGFYPSDIAVEWESNGQPENNYKTTPPVLDSDGSFFLYSKLTVDKSRWQQGNVFSCSVMHEALHNHYTQKSLSLSP
light: DIQMTQSPSSLSASVGDRVTITCRASQDIHKYIAWYQQKPGQAPRLLIQYTSTLQPGVPSRFSGSGSGTDYTFTISSLQPEDIATYYCLQYEQLRTFGGGTKVEIKRTVAAPSVFIFPPSDEQLKSGTASVVCLLNNFYPREAKVQWKVDNALQSGNSQESVTEQDSKDSTYSLSSTLTLSKADYEKHKVYACEVTHQGLSSPVTKSFNRGEC
EC50 value (hFcγRIIIaV ADCC Reporter Bioassay, Hepa1-6/hEREG target cells) [1]: 0.00208 mg/L
Relative value to KD between G1d and hFcgRs [2]: 10.3
Relative value to KD between G1d and hFcgRs [3]: 99.1
Relative value to KD between G1d and hFcgRs [4]: 6.9
Relative value to KD between G1d and hFcgRs [5]: 21.3
Relative value to KD between G1d and hFcgRs [6]: 3.8
Relative value to KD between G1d and hFcgRs [7]: 23.6
binding result [8]: no binding (tested: 30 µg/mL)
Kd [9]: 2670 nM
Kd [10]: 161 nM
Kd [11]: 29.8 nM
Kd [12]: 162 nM
Kd [13]: 0.00423 nM
Kd [14]: 15.2 nM
EC50 value (hFcγRIIaH ADCP Reporter Bioassay, Hepa1-6/hEREG target cells) [15]: 0.0324 mg/L
A/I ratio (KD for FcγRIIb divided by KD for each FcγR) [16]: 16.5
A/I ratio (KD for FcγRIIb divided by KD for each FcγR) [17]: 89.3
A/I ratio (KD for FcγRIIb divided by KD for each FcγR) [18]: 16.5
A/I ratio (KD for FcγRIIb divided by KD for each FcγR) [19]: 176

B2: 04H1077-G1m/04L1066-lam1 (antibody, human IgG1, lambda, V domains shown)
VH: EVQLVESGGDLVKPGGGLRLSCAASGFTFSSRTMNWVRQAPGKGLEWVSSISTRSGYIYYAESVKGRFTISRDNAKNSLYLQMNSLRAEDTAVYYCARYGKREDMLWVFDYWGQGTLVTVSS
VL: QSALTQPPSASGSPGQTVTISCDGPSTDVGDYNWVHWYQQHPGKAPKLMIYFTSKKPSGVPDRFSGSKSGNTASLTVSGLQAEDEADYFCSTYAAPLGPMFGGGTKLTVLG
Kd [20]: 48 nM
Kd [21]: 6900 nM
Kd [22]: 280 nM

B3: 04H1207-G1m/04L1086-lam1 (antibody, human IgG1, lambda, V domains shown)
VH: EVQLVESGGGLVKPGGSLRLSCAASGFTFSSKTMNWVRQAPGKGLEWVSSISTRSGYIYYAESVKGRFTISRDNAKNSLYLQMNSLRAEDTAVYYCARYGKREDMLWVFDYWGQGTLVTVSS
VL: QSALTQPPSASGSPGQTVTISCDGPSTGVGDYNYVHWYQQHPGKAPKLMIYFTSKKPSGVPDRFSGSKSGNTASLTVSGLQAEDEADYFCQTYAAPLGPMFGGGTKLTVLG
notes: Human IgG1 constant region G1m (C-terminal Gly and Lys removed), human lambda chain lam1
Binding to Human CTLA4 (binding amount per unit amount of antibody) (human CTLA4 [23]): 0.166
Kd (human CTLA4 [24]): 76 nM
Binding to Human CTLA4 (binding amount per unit amount of antibody) (human CTLA4 [25]): 0.111
Kd (human CTLA4 [26]): 400 nM
Binding to Human CTLA4 (binding amount per unit amount of antibody) (human CTLA4 [27]): 0.01
Binding to Human CTLA4 (binding amount per unit amount of antibody) (human CTLA4 [28]): 0.037

B4: 04H1208-G1m/04L1086-lam1 (antibody, human IgG1, lambda, V domains shown)
VH: EVQLVESGGGLVKPGGSLRLSCAASGFTFSSKTMNWVRQAPGKGLEWVSSISTRSGYIYYARSVKGRFTISRDNAKNSLYLQMNSLRAEDTAVYYCARYGKREDMLWVFDYWGQGTLVTVSS
VL: QSALTQPPSASGSPGQTVTISCDGPSTGVGDYNYVHWYQQHPGKAPKLMIYFTSKKPSGVPDRFSGSKSGNTASLTVSGLQAEDEADYFCQTYAAPLGPMFGGGTKLTVLG
Binding to Human CTLA4 (binding amount per unit amount of antibody) (human CTLA4 [23]): 0.139
Kd (human CTLA4 [24]): 91 nM
Binding to Human CTLA4 (binding amount per unit amount of antibody) (human CTLA4 [25]): 0.084
Kd (human CTLA4 [26]): 510 nM
Binding to Human CTLA4 (binding amount per unit amount of antibody) (human CTLA4 [27]): 0.003
Binding to Human CTLA4 (binding amount per unit amount of antibody) (human CTLA4 [28]): 0.022

B5: 04H1382-G1m/04L1086-lam1 (antibody, human IgG1, lambda, V domains shown)
VH: EVQLVESGGGLVKPGGSLRLSCAASGFTFSSKTMNWVRQAPGKGLEWVSSISTQSHYIYYARSVKGRFTISRDNAKNSLYLQMNSLRAEDTAVYYCARYGKREDMLWVFDYWGQGTLVTVSS
VL: QSALTQPPSASGSPGQTVTISCDGPSTGVGDYNYVHWYQQHPGKAPKLMIYFTSKKPSGVPDRFSGSKSGNTASLTVSGLQAEDEADYFCQTYAAPLGPMFGGGTKLTVLG
Binding to Human CTLA4 (binding amount per unit amount of antibody) (human CTLA4 [23]): 0.159
Kd (human CTLA4 [24]): 14 nM
Binding to Human CTLA4 (binding amount per unit amount of antibody) (human CTLA4 [25]): 0.152
Kd (human CTLA4 [26]): 46 nM
Binding to Human CTLA4 (binding amount per unit amount of antibody) (human CTLA4 [27]): 0.008
Binding to Human CTLA4 (binding amount per unit amount of antibody) (human CTLA4 [28]): 0.09
